According to publication PMC3764193:

Target: T1, recombinant (His)6-Bwc2 (Cryptococcus neoformans var. neoformans JEC21) (UniProt Q5EGQ1)
T1 sequence: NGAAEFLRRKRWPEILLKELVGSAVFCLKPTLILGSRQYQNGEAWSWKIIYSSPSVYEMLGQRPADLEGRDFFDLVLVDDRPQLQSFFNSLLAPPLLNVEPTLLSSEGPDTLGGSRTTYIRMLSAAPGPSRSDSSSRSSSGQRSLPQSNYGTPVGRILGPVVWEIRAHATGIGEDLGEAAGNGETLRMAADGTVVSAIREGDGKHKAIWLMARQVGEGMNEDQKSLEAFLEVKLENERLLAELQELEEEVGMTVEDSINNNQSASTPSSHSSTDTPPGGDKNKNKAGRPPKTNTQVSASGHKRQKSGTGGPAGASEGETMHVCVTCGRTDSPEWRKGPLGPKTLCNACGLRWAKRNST
Assay: EMSA
Conditions: 1X EMSA buffer (from 5X: 20% w/v glycerol, 5 mM MgCl2, 250 mM NaCl, 2.5 mM EDTA pH 8, 10 mM DTT, +/-12 uM ZnSO4) + 1X phosphate buffer, 20 ul; 20 min …

For “GTAGTCACCAGTCATTCAGTTACTCTGTTATGACGTGACGTCGTTACTCTCGATCTTCATCTCGATCTCCACCTTGCAAGCTTTTCAGGCTTTTTACTCATCGTTCACTATATAATACGATACCACACTTGACATTTCTTCGGTATGTATAAAACGCAGTCGCGAGTACTTCCTTCTGCTTTTGCAACAAACACGTCTGCATTTGTTGCCAAGTATTTATATCAGCATTAAGTACATGAGGTTC (double strand) [P1 (UVE1 promoter)]”, the binding was “binds”.
